Measured values published in US20170218047A1, “NOVEL FUSION PARTNERS FOR THE PURPOSE OF CRYSTALLIZING G-PROTEIN COUPLED RECEPTORS” (THE SCRIPS RESEARCH INSTITUTE, priority 2011, published 2017).

Assay: Size exclusion chromatography (SEC) of purified S1P1-fusion partner proteins
Type: physicochemical
Settings: presence or absence of ligand
Protocol: S1P1-fusion partner proteins (“S1P1 fusion receptors”) were purified from membranes by dodecyl-maltoside (DDM) extraction followed by immobilized metal affinity chromatography (IMAC) on Talon resin (Clontech) as detailed below. Frozen cellular membranes were thawed by adding room temperature lysis buffer to a total volume of 25 mL. The S1P1 receptor antagonist W146 was added to a final concentration of 125 μM. The mixture was allowed to incubate at room temperature for 1 hour to ensure complete saturation of the receptor with ligand followed by addition of iodoacetamide to a concentration of 1 mg/mL and an additional 1 hour incubation at 4° C. Receptor solubilization was initiated by addition of detergent and cholesteryl hemisuccinate (CHS) to achieve a final concentration of 0.5% DDM 0.1% CHS. The solubilization buffer consisted of the following mixture: 50 mM Hepes pH 7.5; 800 mM NaCl; 30 mM Imidazole; 0.1% DDM 0.02% CHS; 125 μM W146. […]
Eluted proteins were analyzed by size-exclusion chromatography (SEC) followed by SDS-PAGE. […] SEC fractions corresponding to S1P1-fusion partner proteins were evaluated separated by SDS-PAGE on a 10% gel and stained, confirming that each S1P1-fusion partner protein could be purified to near-homogeneity (data not shown).

B1: S1P1-flavodoxin: S1P1 receptor with flavodoxin replacing part of ICL3, SEQ ID NO: 3 (protein, listed as Homo sapiens)
chain: MGPTSVPLVKAHRSSVSDYVNYDIIVRHYNYTGKLNISADKENSIKLTSVVFILICCFIILENIFVLLTIWKTKKFHRPMYYFIGNLALSDLLAGVAYTANLLLSGATTYKLTPAQWFLREGSMFVALSASVFSLLAIAIERYITMLKMKLHNGSNNFRLFLLISACWVISLILGGLPIMGWNCISALSSCSTVLPLYHKHYILFCTTVFTLLLLSIVILYCRIYSLVRTRAKALIVYGSTTGNTEYTAETIARELADAGYEVDSRDAASVEAGGLFEGFDLVLLGCSTWGDDSIELQDDFIPLFDSLEETGAQGRKVACFGCGDSSWEYFCGAVDAIEEKLKNLGAEIVQDGLRIDGDPRAARDDIVGWAHDVRGAIASRSSENVALLKTVIIVLSVFIACWAPLFILLLLDVGCKVKTCDILFRAEYFLVLAVLNSGTNPIIYTLTNKEMRRAFIRIM
  stability by SEC (in words): stable in the presence or absence of ligand
